Data set [1] deals with Bovine lactoferrin (lactoferrin from bovine milk, Sigma), P24627.
The target in data set [2] is T1, Bovine ribonuclease B (ribonuclease B from bovine pancreas, Sigma-Aldrich), P61823.
T1 chain: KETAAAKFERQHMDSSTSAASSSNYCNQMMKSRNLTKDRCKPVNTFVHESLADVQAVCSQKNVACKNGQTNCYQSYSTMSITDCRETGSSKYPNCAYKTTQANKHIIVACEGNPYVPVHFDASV

The target in data set [3] is Human lactoferrin (lactoferrin from human milk, Sigma), P02788.
In another data set the target is T2, bovine fetuin, P12763.
T2 chain: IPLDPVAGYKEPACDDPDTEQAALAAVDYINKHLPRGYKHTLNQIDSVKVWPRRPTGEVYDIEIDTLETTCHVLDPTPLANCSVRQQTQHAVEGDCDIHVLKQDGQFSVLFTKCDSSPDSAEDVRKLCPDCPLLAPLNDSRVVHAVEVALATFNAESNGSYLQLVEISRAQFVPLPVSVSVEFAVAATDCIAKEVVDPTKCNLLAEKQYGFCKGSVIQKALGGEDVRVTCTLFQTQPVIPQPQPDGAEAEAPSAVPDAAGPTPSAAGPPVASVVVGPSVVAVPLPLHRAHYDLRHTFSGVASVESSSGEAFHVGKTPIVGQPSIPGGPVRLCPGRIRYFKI

Human lactoferrin (lactoferrin from human milk, Sigma), P02788, sequence (P02788 20-710): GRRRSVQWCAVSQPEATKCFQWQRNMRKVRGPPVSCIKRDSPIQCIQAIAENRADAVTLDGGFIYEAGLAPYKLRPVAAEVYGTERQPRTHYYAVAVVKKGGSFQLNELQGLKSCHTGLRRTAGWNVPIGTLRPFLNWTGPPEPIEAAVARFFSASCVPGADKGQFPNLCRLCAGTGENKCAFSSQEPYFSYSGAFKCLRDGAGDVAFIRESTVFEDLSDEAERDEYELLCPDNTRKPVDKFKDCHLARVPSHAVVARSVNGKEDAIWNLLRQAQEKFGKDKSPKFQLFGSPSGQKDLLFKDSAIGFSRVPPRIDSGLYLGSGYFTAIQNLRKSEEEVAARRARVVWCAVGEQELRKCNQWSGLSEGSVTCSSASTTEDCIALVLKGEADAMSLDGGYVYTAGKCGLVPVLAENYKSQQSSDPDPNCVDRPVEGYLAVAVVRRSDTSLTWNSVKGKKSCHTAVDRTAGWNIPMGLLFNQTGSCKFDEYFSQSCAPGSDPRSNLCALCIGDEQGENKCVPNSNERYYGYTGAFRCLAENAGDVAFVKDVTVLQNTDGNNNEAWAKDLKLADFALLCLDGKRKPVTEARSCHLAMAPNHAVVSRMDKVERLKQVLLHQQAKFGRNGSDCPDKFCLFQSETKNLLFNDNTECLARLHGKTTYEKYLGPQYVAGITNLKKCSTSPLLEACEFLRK
Bovine lactoferrin (lactoferrin from bovine milk, Sigma), P24627, sequence (P24627 20-708): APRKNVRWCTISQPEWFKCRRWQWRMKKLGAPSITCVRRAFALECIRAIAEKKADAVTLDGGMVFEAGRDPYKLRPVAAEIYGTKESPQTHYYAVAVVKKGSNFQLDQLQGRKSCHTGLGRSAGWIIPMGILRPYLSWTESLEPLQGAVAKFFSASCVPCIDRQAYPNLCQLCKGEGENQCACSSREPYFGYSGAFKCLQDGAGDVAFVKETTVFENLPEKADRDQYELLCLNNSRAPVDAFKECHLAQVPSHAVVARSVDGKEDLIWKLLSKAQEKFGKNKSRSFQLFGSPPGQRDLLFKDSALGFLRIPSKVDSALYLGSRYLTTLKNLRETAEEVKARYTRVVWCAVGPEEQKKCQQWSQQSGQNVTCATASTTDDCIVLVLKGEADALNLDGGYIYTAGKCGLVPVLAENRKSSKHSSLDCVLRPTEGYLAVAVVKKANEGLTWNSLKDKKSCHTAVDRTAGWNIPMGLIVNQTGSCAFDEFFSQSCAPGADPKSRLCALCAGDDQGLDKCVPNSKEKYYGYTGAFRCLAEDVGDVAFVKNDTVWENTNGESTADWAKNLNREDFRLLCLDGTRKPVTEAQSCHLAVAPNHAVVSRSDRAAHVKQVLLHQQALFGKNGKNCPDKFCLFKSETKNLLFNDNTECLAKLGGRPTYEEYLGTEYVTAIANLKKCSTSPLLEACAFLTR

B1: EndoBB (GH85 endo-β-N-acetylglucosaminidase, BLD_0197 from B. longum DJO10A), recombinant, signal peptide and transmembrane domain omitted (protein)
chain: CSGGTSATKYTITPENENEELVLGNRPEASYWFPEDLLKWNADKDPNLAYNVSTVPLAKRVDKADLKPVNDTQNTDTKVMAISIMNSSTSGNAPHGLNTANANTFSYWQYVDELVYWGGSSGEGIIVPPSPDVTDMGHTNGVPVLGTVFFPQNVSGGKVEWLDQTLAQKSDGSFPVADKLIEVATTYGFDGWFINQETEGENETSLGADYATKMQAFIAYLKKQAPDLRVVYYDSMTKDGSIDWQNALTDENSMYMTDGDHPIADEMFLNFWWTEDKLAGDDLLAASATKAKELGIDPYSLYAGIDVQADGYDTPVKWNLFAGKDGKTHTSLGLYCPSWAYWSAGNPTTFRKNESRLWVNDEGNPSVSTPYEDDEKWTGVSNYVAEQSAVTSLPFVTNFNNGSGYSFFREGKQISKMDWNNRSVSDIQPTYRWIVADEGGNKTKADYSDADAWYGGSSLKFSGKVAKDGKTMVKLYSASVKTGAKPTLSIAAKANVDTDLKAVLTFADGSVETVNGKKKVGNDWGVIDYDIAKLSNKTLTGIDFTYQSSEDKTGYELLLGNITLKDGSEETELGKVTEVKVDDSEFDDDALYAGARISWKTDGKAPAYEIYQINEDKSRSFLGVSNVENFYANALTRVGETNNTTFEIVPVDRYGTQGTSAKADMDWPDNSKPKAGATASRTLLNVGDEVTFTSASSKNTAEVAWSLPGSSKEHATGKSVTVTYDKEGVYDVEITAKNKSGEATATLKGQIVVSADVMDLVLLSQGAQVSADGFTNGNEKPEFAVDGDVKTKWCVTGPAPHELVVDLGAPKTVSQVDISHAQAGGEDASMNTQEYAIEVSEDGTEYTQVALVKGNTEGATSNAFAPVNARYVKLVVNKPTQGSDTAARIYEMQVRGADGAIL
For B1, the “deglycosylation (cleavage of high mannose glycans)” value in data set [1] was “cleaving RNAseB and bLF, but not hLF”; in data set [2] it was “cleaving RNAseB and bLF, but not hLF”; in data set [3], “cleaving RNAseB and bLF, but not hLF”. In addition, the “deglycosylation, change in MW on SDS-PAGE after overnight incubation” value (shortened to “deglycosylation, change in MW”) in data set [1] is given as “all of them were able to cleave bLF, as observed by discrete changes in MW on SDS-PAGE gels”.

B2: EndoBI-1 (endo-β-N-acetylglucosaminidase from B. infantis ATCC 15697, Blon_2468), recombinant, signal peptide and transmembrane domains omitted (protein)
chain: NADAVSPTQETIQSTGRHFMVYYRAWRDVTMKGVNTDLPDDNWISMYDIPYGVDVVNIFSYVPSGQEEQAQPFYDKLKSDYAPYLHSRGIKLVRGIDYTGVAVNGFRTFMKEQNKTESEATEADYDAYAKQVIDKYMISVGLDGLDIDMEAHPNDADVKISDNVIRALSKHIGPKSAKPDTTMFLYDTNGSYLNPFKNVAECFDYVAYQQYGSSSDRTARAAADYQPYIGNEFVPGLTFPEEGDMNNRWYDATEPYEESHFYQVASYVREHNLGGMFVYALDRDGRNYDEDLRRIVPSNLLWTKTAIAESEGMALDTAKTAANHYLDRMSLRQVIDDNAASADKARDMVGKAANLYETNKAVLGGDYGEGFSNTYDPTLEAGLLGIDISVLQQQIDKSSEIIGADTAESDAKTALRMARDAAIDGLTGKIYTADQVSAWSQALKAALDATVPVPTPDSTDQNGNRDKVTNHKVQGQPKQLSAT
For the protein B2, the “deglycosylation, change in MW” value in data set [1] was “all of them were able to cleave bLF, as observed by discrete changes in MW on SDS-PAGE gels”. Further, in data set [3], the “deglycosylation, SDS-PAGE after overnight incubation” value is “EndoBI-1 and EndoBI-2 cleaved hLF”; the “shift in molecular weight on SDS-PAGE of human milk after overnight incubation” value was “produced a shift in the molecular weight of primarily lactoferrin”. Moreover, the “release of N-glycans” value with bovine fetuin, P12763 is “releasing N-glycans from human IgA, IgG, RNase B and bovine fetuin”.

B3: EndoBI-2 (endo-β-N-acetylglucosaminidase from B. infantis SC142), recombinant, signal peptide and transmembrane domains omitted (protein)
chain: VANAQEGDSPVAASQEGNGNKHFMVYYRAWRDVTMKGVNTDLPDDNWISMYDIPYGIDVVNVFSYVPSGQEAAAQPFYDKLKSDYAPYLHARGVKLVRGLDYSGVMVDGFKTWIAQQGKNVDSATESDYDAYADHVIETYMTSVGLDGLDIDMETFPDAAQVAISDQVITALAKRIGPKSDNPEGTMFLYDTNGSYTAPFKNVSDCFDYVAYQQYGSDSNRTAKAAATYEQFIDSTKFVPGLTFPEEGDMNNRWNDATEPYLDSHFYDVASYSYDHNLGGMFVYALDRDGRTYSDDDLAHIKPSNLIWTKTAIAQSQGMSLENAKQAANHFLDRMSYTKDVPAETRQTVAAATNLYEVNKAVLGADWNDGYSNTYDPTLELSLASIDTTALTGAIAKADALLADGATDTDVRTTLTTARNAA
With B3, the “deglycosylation, change in MW” value in data set [1] is “all of them were able to cleave bLF, as observed by discrete changes in MW on SDS-PAGE gels”. The “deglycosylation, SDS-PAGE after overnight incubation” value in data set [3] was “EndoBI-1 and EndoBI-2 cleaved hLF”.

The record behind these values is US20190381150.
